Patent US20210388110A1 (published 2021)

Molecular target: T1, soluble human CD3ε chain (human, UniProt P07766 23-126, limits assumed)
T1 construct: the text says soluble human CD3ε chain; also called human CD3 epsilon chain
Test: SPR (Biacore)

T1 sequence (P07766 23-126 limits assumed): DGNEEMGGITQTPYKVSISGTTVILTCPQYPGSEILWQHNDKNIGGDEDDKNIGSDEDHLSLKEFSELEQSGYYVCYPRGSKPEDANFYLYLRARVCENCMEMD

B1: TR01H040-E22Hh/none-Hi-Kn010G3/L0223-k0 (antibody, human IgG1, kappa, L234A L235A, N297A)
heavy: QVQLVESGGGLVQPGRSLRLSCAASGFTFSNAWMHWVRQAPGKGLEWVAQIKDKSQNYATYYAESVKGRFTISRADSKNSIYLQMNSLKTEDTAVYYCRYVHYSASYGVDAWGQGTTVTVSSASTKGPSVFPLAPSSKSTSGGTAALGCLVKDYFPEPVTVSWNSGALTSGVHTFPAVLQSSGLYSLSSVVTVPSSSLGTQTYICNVNHKPSNTKVDKKVEPKSCDKTHTCPPCPAPEAAGGPSVFLFPPKPKDTLMISRTPEVTCVVVDVSHEDPEVKFNWYVDGVEVHNAKTKPREEQYASTYRVVSVLTVLHQDWLNGKEYKCKVSNKALPAPIEKTISKAKGQPREPQVYTLPPSRCELTKNQVSLSCAVKGFYPSDIAVEWESNGQPENNYKTTPPVLDSDGSFFLVSKLTVDKSRWQQGNVFSCSVMHEALHNHYTQKSLSLSPDYKDDDDK
chain: EPKSSDKTHTCPPCPAPELLGGPSVFLFPPKPKDTLMISRTPEVTCVVVDVSHEDPEVKFNWYVDGVEVHNAKTKPREEQYNSTYRVVSVLTVLHQDWLNGKEYKCKVSNKALPAPIEKTISKAKGQPREPQVCTLPPSRDELTKNQVSLWCLVKGFYPSDIAVEWESNGQPENNYKTTPPVLDSDGSFFLYSKLTVDKSRWQQGNVFSCSVMHEALHNRYTQKSLSLSP
light: DIVMTQSPLSLPVTPGEPASISCRSSQSPVHSNRNTYIHWYQQKPGQAPRLLIYKVSNRLSGVPDRFSGSGSGTDFTLKISRVEAEDVGVYYCYQGTQVPYTFGQGTKLEIKRTVAAPSVFIFPPSDEQLKSGTASVVCLLNNFYPREAKVQWKVDNALQSGNSQESVTEQDSKDSTYSLSSTLTLSKADYEKHKVYACEVTHQGLSSPVTKSFNRGEC
notes: single-arm
  Kd: 8.15 nM

B2: TR01H040-E22Hh/none-Hi-Kn010G3/L0224-k0 (antibody, human IgG1, kappa, L234A L235A, N297A)
heavy: QVQLVESGGGLVQPGRSLRLSCAASGFTFSNAWMHWVRQAPGKGLEWVAQIKDKSQNYATYYAESVKGRFTISRADSKNSIYLQMNSLKTEDTAVYYCRYVHYSASYGVDAWGQGTTVTVSSASTKGPSVFPLAPSSKSTSGGTAALGCLVKDYFPEPVTVSWNSGALTSGVHTFPAVLQSSGLYSLSSVVTVPSSSLGTQTYICNVNHKPSNTKVDKKVEPKSCDKTHTCPPCPAPEAAGGPSVFLFPPKPKDTLMISRTPEVTCVVVDVSHEDPEVKFNWYVDGVEVHNAKTKPREEQYASTYRVVSVLTVLHQDWLNGKEYKCKVSNKALPAPIEKTISKAKGQPREPQVYTLPPSRCELTKNQVSLSCAVKGFYPSDIAVEWESNGQPENNYKTTPPVLDSDGSFFLVSKLTVDKSRWQQGNVFSCSVMHEALHNHYTQKSLSLSPDYKDDDDK
chain: EPKSSDKTHTCPPCPAPELLGGPSVFLFPPKPKDTLMISRTPEVTCVVVDVSHEDPEVKFNWYVDGVEVHNAKTKPREEQYNSTYRVVSVLTVLHQDWLNGKEYKCKVSNKALPAPIEKTISKAKGQPREPQVCTLPPSRDELTKNQVSLWCLVKGFYPSDIAVEWESNGQPENNYKTTPPVLDSDGSFFLYSKLTVDKSRWQQGNVFSCSVMHEALHNRYTQKSLSLSP
light: DIVMTQSPLSLPVTPGEPASISCRSSQSPVHSNRNTYIHWYQQKPGQAPRLLIYKVSNRFPGVPDRFSGSGSGTDFTLKISRVEAEDVGVYYCYQGTQVPYTFGQGTKLEIKRTVAAPSVFIFPPSDEQLKSGTASVVCLLNNFYPREAKVQWKVDNALQSGNSQESVTEQDSKDSTYSLSSTLTLSKADYEKHKVYACEVTHQGLSSPVTKSFNRGEC
notes: single-arm
  Kd: 5.06 nM
